Source: paper PMC6078952
pKd: −log10 of the molar value.

How the values were obtained:
[1] = target: recombinant human propeptide of lysyl oxidase (LOX-PP) (human) (UniProt P28300); test: SPR; Biacore T100 or T200, 25 °C, HBS pH 7.4 with 0.05% P20; LOX-PP covalently immobilised on a CM5 chip via amino groups, plasminogen as analyte; single-cycle kinetics, 2-state model, n = 2
Tropoelastin = Tropoelastin (UniProt P15502); test: SPR; Biacore T100 or T200, 25 °C, HBS pH 7.4 with 0.05% P20; tropoelastin covalently immobilised on a CM5 chip via amino groups, LOX-PP as analyte; single-cycle kinetics, 2-state model
Tropoelastin, sequence (P15502 27-786): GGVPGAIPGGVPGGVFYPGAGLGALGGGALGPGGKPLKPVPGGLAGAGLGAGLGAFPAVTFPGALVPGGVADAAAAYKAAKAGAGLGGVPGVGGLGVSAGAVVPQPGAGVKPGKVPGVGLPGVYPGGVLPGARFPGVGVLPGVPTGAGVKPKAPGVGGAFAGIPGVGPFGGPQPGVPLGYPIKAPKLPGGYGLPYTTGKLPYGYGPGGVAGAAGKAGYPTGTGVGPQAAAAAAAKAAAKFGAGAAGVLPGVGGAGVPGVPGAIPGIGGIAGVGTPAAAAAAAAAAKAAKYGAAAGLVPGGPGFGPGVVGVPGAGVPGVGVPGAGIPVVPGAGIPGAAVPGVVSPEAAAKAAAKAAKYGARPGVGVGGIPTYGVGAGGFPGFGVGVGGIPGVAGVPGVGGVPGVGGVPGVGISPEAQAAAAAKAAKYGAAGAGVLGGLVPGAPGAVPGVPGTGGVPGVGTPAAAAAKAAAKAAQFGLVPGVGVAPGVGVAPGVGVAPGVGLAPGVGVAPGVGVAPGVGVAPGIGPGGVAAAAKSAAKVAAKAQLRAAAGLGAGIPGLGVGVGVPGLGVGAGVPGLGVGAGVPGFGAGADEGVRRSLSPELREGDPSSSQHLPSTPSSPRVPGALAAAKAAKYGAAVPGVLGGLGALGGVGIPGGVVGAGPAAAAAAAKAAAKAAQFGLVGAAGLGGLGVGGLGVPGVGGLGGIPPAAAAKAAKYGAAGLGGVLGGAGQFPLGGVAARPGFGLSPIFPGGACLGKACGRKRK

recombinant human propeptide of lysyl oxidase (LOX-PP) (human), sequence (P28300 22-168 P24L): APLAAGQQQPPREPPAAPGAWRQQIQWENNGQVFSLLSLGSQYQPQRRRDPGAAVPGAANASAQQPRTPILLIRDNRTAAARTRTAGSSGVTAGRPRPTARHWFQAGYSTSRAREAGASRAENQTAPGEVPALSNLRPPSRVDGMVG

pKd [1] | ka of the first step (2-state model) [1] [M⁻¹ s⁻¹] | ka of the second step (2-state model) [1] [s⁻¹] | kd of the first step (2-state model) [1] [s⁻¹] | kd of the second step (2-state model) [1] [s⁻¹] | pKd (Tropoelastin) | ka of the first step (2-state model) (Tropoelastin) [M⁻¹ s⁻¹] | ka of the second step (2-state model) (Tropoelastin) [s⁻¹] | kd of the first step (2-state model) (Tropoelastin) [s⁻¹] | kd of the second step (2-state model) (Tropoelastin) [s⁻¹] | Substance
7.80 | 41700 | 0.00214 | 0.00515 | 0.000306 | – | – | – | – | – | Plasminogen (natural protein)
– | – | – | – | – | 8.86 | 331 | 0.003 | 0.0043 | 3.1e-07 | recombinant human propeptide of lysyl oxidase (LOX-PP) (from UniProt P28300 22-168) (domain or fragment)
